The source of these data is US20240327475A1 (UNIVERSITY OF MARYLAND COLLEGE PARK, published 2024).

The chains are these.
T1: control non-targeted ASM (Olipudase); full recombinant ASM produced by He et al. (1999), which served as … (human, UniProt P17405 62-631)
T1 construct: also called control ASM
T1 sequence (looked up): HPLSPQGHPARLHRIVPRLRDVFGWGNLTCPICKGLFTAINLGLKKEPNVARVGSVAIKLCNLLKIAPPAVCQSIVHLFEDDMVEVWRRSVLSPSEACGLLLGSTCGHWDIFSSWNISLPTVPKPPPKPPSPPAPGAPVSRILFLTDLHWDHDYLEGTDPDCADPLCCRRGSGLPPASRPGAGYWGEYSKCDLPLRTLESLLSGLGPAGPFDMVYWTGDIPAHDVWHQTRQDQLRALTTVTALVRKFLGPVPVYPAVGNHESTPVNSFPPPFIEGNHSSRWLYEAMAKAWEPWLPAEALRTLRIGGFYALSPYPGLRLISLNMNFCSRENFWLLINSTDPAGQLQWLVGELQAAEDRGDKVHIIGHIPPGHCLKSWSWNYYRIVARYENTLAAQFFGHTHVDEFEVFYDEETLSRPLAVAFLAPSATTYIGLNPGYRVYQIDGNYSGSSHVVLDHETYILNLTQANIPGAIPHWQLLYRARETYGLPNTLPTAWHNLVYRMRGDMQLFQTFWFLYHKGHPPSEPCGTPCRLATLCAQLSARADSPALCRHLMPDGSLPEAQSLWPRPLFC

B1: ICAM-1 on human cells (HUVEC; human brain endothelial cells and astrocytes of the BBB model; iPS-derived neurons from a Gaucher patient) (receptor, UniProt P05362 28-532, looked up)
chain: QTSVSPSKVILPRGGSVLVTCSTSCDQPKLLGIETPLPKKELLLPGNNRKVYELSNVQEDSQPMCYSNCPDGQSTAKTFLTVYWTPERVELAPLPSWQPVGKNLTLRCQVEGGAPRANLTVVLLRGEKELKREPAVGEPAEVTTTVLVRRDHHGANFSCRTELDLRPQGLELFENTSAPYQLQTFVLPATPPQLVSPRVLEVDTQGTVVCSLDGLFPVSEAQVHLALGDQRLNPTVTYGNDSFSAKASVSVTAEDEGTQRLTCAVILGNQSQETLQTVTIYSFPAPNVILTKPEVSEGTEVTVKCEAHPRAKVTLNGVPAQPLGPRAQLLLKATPEDNGRSFSCSATLEVAGQLIHKNQTRELRVLYGPRLDERDCPGNWTWPENSQQTPMCQAWGNPLPELKCLKDGTFPLPIGESVTVTRDLEGTYLCRARSTQGEVTRKVTVNVLSPRYEIVIITVVAAAVIMGTAGLSTYLYNRQRKIKKYRLQQAQKGTPMKPNTQATPP
notes: whole, on cells; also called ICAM receptor; intercellular adhesion molecule-1
B2: targeted fusion GCase protein J in Example 1 (human GCase with five tandem-repeats of the 2γ3 ICAM-1-targeting peptide at the amino terminus), after … (enzyme)
chain: NNQKIVNIKEKVAQIEAGGGGSGGGGSNNQKIVNIKEKVAQIEAGGGGSGGGGSNNQKIVNIKEKVAQIEAGGGGSGGGGSNNQKIVNIKEKVAQIEAGGGGSGGGGSNNQKIVNIKEKVAQIEAGGGGSGGGGSGFLGARPCIPKSFGYSSVVCVCNATYCDSFDPPTFPALGTFSRYESTRSGRRMELSMGPIQANHTGTGLLLTLQPEQKFQKVKGFGGAMTDAAALNILALSPPAQNLLLKSYFSEEGIGYNIIRVPMASCDFSIRTYTYADTPDDFQLHNFSLPEEDTKLKIPLIHRALQLAQRPVSLLASPWTSPTWLKTNGAVNGKGSLKGQPGDIYHQTWARYFVKFLDAYAEHKLQFWAVTAENEPSAGLLSGYPFQCLGFTPEHQRDFIARDLGPTLANSTHHNVRLLMLDDQRLLLPHWAKVVLTDPEAAKYVHGIAVHWYLDFLAPAKATLGETHRLFPNTMLFASEACVGSKFWEQSVRLGSWDRGMQYSHSIITNLLYHVVGWTDWNLALNPEGGPNWVRNFVDSPIIVDITKDTFYKQPMFYHLGHFSKFIPEGSQRVGLVASQKNDLDAVALMHPDGSAVVVVLNRSSKDVPLTIKDPAVGFLETISPGYSIHTYLWRRQ
modifications: pre-labeled with 125Iodine

The target in test [1] is T1, control non-targeted ASM (Olipudase); …. As to the kind of experiment: Incubation with HUVEC cells (known to express ICAM-1) for 3 h at 37° C., then fixation, permeabilization and anti-ASM + FITC-secondary antibody staining (cell association and uptake).
For test [2], the target named is B1. In words: cell-based or functional assay.

Consider B1, for which the binding result in test [1] is given as “no binding”. In the case of B2, the “association to iPS-derived neurons from a Gaucher patient, fold over control non-targeted enzyme” value in test [2] was around 3 fold.
